In US20240209112A1 (GENOME, published 2024):

T1: BCAM protein (antigenic protein coated in the ELISA) (UniProt P50895 32-547, limits assumed)
T1 construct: also called antigen protein; Lu
T1 sequence (looked up): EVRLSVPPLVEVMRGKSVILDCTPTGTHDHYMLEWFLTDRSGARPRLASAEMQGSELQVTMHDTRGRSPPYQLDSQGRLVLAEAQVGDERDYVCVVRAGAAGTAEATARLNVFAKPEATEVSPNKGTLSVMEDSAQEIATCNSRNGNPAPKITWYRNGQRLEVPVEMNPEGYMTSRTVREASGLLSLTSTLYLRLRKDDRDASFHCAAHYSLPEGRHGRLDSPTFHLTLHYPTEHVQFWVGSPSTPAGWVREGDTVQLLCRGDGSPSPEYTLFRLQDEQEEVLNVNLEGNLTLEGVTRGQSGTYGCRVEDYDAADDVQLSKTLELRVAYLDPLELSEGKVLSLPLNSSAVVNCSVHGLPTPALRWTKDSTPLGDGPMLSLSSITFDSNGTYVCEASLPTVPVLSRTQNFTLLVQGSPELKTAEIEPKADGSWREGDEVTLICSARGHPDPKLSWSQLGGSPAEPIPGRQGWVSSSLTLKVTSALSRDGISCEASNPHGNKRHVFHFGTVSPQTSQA

T2: Human BCAM (amine-coupled to AR2G biosensors) (human, UniProt P50895 32-547, limits assumed)
T2 construct: also called human BCAM protein
T2 sequence (looked up): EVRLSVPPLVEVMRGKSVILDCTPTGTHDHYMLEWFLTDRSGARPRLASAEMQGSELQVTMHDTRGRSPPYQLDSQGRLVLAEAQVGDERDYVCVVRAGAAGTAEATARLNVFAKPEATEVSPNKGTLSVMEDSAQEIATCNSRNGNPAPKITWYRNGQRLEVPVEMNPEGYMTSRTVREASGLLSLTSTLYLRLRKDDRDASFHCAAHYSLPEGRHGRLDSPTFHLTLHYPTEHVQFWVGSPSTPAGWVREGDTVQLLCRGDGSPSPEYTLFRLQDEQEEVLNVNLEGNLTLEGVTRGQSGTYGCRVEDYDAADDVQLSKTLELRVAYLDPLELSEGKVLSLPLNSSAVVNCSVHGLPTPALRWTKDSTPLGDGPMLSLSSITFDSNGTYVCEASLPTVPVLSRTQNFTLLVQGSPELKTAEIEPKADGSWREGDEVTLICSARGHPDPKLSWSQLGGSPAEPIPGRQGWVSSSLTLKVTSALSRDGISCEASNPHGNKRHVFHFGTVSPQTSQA

T3: Human BCAM expressed on transfected HEK293FT cells (human, UniProt P50895 32-628)
T3 construct: whole, on cells; also called Human BCAM antigens; 293FT/BCAM1
T3 sequence (looked up): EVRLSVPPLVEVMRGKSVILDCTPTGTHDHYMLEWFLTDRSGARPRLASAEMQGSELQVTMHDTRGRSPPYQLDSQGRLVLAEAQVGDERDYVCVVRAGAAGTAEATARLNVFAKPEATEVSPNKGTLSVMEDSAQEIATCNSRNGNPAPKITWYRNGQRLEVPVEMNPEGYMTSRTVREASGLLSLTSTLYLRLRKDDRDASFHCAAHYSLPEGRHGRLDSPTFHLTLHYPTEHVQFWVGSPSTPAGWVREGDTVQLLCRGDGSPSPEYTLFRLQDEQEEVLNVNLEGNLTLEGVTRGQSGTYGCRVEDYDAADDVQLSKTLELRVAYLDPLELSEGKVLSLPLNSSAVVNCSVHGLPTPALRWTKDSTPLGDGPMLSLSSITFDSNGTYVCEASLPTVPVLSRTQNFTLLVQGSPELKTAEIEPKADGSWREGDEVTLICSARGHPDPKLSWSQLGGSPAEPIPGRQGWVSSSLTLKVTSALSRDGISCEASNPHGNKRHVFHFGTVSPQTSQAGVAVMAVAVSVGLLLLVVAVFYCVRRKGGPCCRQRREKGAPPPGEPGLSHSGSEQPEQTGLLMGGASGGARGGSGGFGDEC

B1: anti-BCAM human IgG4 antibody 111c (antibody, V domains shown)
VH: EVQLVQSGGGLVKPGGSLRLSCAASGFTFSDYYMSWIRQAPGKGLEWVSYTSSSGSTIYYADSVKGRFTISRDNAKNSLYLQMNSLRAEDTAVYYCARDITAFDIWGQGTMVTVSS
VL: LPVLTQPPSASGSPGQSVTISCTGTSSDVGGYNYVSWYQQHPGKAPKLMIYEVNKRPSGVPDRFSGSKSGNTASLTVSGLQAEDEADYYCCSYAGSNNYVFGTGTKVTVL
B2: anti-BCAM human IgG4 antibody 111a (antibody, V domains shown)
VH: QVTLKESGPGLVKPSGTLSLTCAVSGGSISSSNWWSWVRQPPGKGLEWIGEIYHSGSTNYNPSLKSRVTISVDKSKNQFSLKLSSVTAADTAVYYCARAYTVTTTYFDYWGQGTLVTVSS
VL: NIQMTQSPSTLSASVGDRVTITCRASQSMSTWLAWYQQKPGRAPKLLIYKASALETGVPSRFSGSGSGTQFTLTISSLQPDDFATYYCQQYDEFASFGQGTKVEIK
notes: Derived from a human scFv phage library; also called 11la
B3: anti-BCAM human IgG4 antibody 111b (antibody, V domains shown)
VH: EVQLVQSGAEVKKPGASVKVSCKASGYTFTSYYMHWVRQAPGQGLEWMGIINPSGGSTSYAQKFQGRVTMTRDTSTSTVYMELSSLRSEDTAVYYCARDGKGWDYYGSGSPLQYWGQGTLVTVSS
VL: LPVLTQPPSVSKGLRQTATLTCTGNSNNVGNQGAAWLQQHQGHPPKLLSYRNNDRPSGISERLSASRSGNTASLTITGLQPEDEADYYCSAWDSSLSAWVFGGGTKLTVL

Legend:
[1] = target: T1, BCAM protein (antigenic protein coated …); assay: ELISA, BCAM coated at 15 nM, antibody at 10 nM
Method: (§1) In order to confirm the binding ability of each antibody prepared in Example 1 to an antigen protein (BCAM protein), an ELISA (Enzyme-Linked Immunosorbent Assay) test was performed. The antigenic protein was diluted in PBS buffer and prepared to a concentration of 15 nM. Each well of a 96-well half plate (Costar, Cat. No. 3690) was coated with 50 μL of the antigenic protein, followed by overnight incubation at 4° C. Next day, after all the solutions in the plate were removed, a blocking buffer (3% BSA in PBS) was added to each well, followed by incubation at 37° C. for 1 hour. Three antibody samples (111a, 111b, and 111c) were sequentially diluted in the blocking buffer from 1 μM to 7 points (1 pM) at a dilution ratio of 10-fold. After the blocking process was completed, the buffer was removed from the well, and the antibodies prepared by the dilution was added to each well by 50 μL, followed by incubation at 37° C. for 2 hours. The incubated well was washed with 0.1% PBST (0.1% Tween 20 in PBS) and were treated with HRP-conjugated anti-human IgG Fc antibodies (ThermoFisher Scientific, Cat. No.: 31423) which were secondary antibodies for antibody detection at 37° C. for 1 hour, and then washed again with 0.1% PBST. ABTS solution (ThermoFisher Scientific, Cat. No.: 00-2024) was added to each well by 50 μL for coloring, and reacted at room temperature for 10 minutes, and an optical density at 405 nm (OD₄₀₅) was measured. In order to compare the degree of avidity of each antibody to antigens, the EC50 concentration of each antibody was calculated, and the results are shown in Table 4.

[2] = target: T1, BCAM protein (antigenic protein coated …); assay: ELISA, BCAM coated at 15 nM, antibody at 1 nM
Method: as §1

[3] = target: T1, BCAM protein (antigenic protein coated …); assay: ELISA, BCAM coated at 15 nM, antibody at 0.01 nM
Method: as §1

[4] = target: T1, BCAM protein (antigenic protein coated …); assay: ELISA on coated BCAM protein
Method: as §1

[5] = target: T2, Human BCAM (amine-coupled to AR2G …); assay: BLI (Octet QK), human BCAM amine-coupled to AR2G sensor, antibody in solution, 1:1 fit
Method: The binding ability confirmation test according to BLI for the three antibodies prepared in Example 1 was performed using Octet (Octet QK, ForteBio).
Specifically, in order to bind human BCAM (antigen) using amine coupling, Reactive 2nd Generation (AR2G) biosensors (Cat. No. 18-5094, Sartorius) were mounted and activated using the AE2G reagent kit (Cat. No. 18-5095). Thereafter, the biosensors were put in an antigen solution for 10 minutes to bind the human BCAM, and put in an ethanolamine solution for 5 minutes to terminate the reaction. The biosensors to which the human BCAM was bound was put into a buffer containing the prepared three different antibodies 111a, 111b, and 111c, and the binding reaction was monitored for 5 minutes, followed by a dissociation reaction for 15 minutes. At this time, antibody solutions were sequentially diluted, and association and dissociation rates depending on different concentrations were verified. The association (Ka) and dissociation (Kd) rate constants were determined by fitting them to a 1:1 binding model using a curve-fitting software. The binding dissociation equilibrium constant (KD) was calculated with KD=Kd/Ka.

[6] = target: T3, Human BCAM expressed on transfected …; assay: flow cytometry on HEK293FT cells transfected with human BCAM
Method: Human BCAM antigens were expressed in HEK293FT cells via transfection (using 293FT/BCAM1 plasmid). The transfected HEK293FT cells (1×10⁵ cells) were suspended in PBS and 50 μL thereof was seeded on a plate.
Separately, each of the anti-BCAM antibodies of Example 1 and isotype control (human IgG) antibodies was initially diluted at a concentration of 45 μg/mL using PBS and diluted 12 times through 3-fold dilution, and the plate was incubated at an appropriate time and at an appropriate temperature. As a negative control, PBS buffer was used.
Then, after washing, AlexaFluor® 647 AffiniPure Goat Anti-Human IgG (H+L) (min X Bov, Hrs, Ms Sr Prot) (Jackson) (1 μg/mL) was added thereto and the plate was incubated again, washed again with PBS, and the binding degree of antigen-antibody was analyzed with a flow cytometer.

[7] = target: T1, BCAM protein (antigenic protein coated …); assay: ELISA, BCAM coated at 15 nM, antibody at 0.001 nM
Method: as §1

[8] = target: T1, BCAM protein (antigenic protein coated …); assay: ELISA, BCAM coated at 15 nM, antibody at 1000 nM
Method: as §1

[9] = target: T1, BCAM protein (antigenic protein coated …); assay: ELISA, BCAM coated at 15 nM, antibody at 0.1 nM
Method: as §1

[10] = target: T1, BCAM protein (antigenic protein coated …); assay: ELISA, BCAM coated at 15 nM, antibody at 100 nM
Method: as §1

| Binder | OD405 [1] [OD405] | OD405 [2] [OD405] | OD405 [3] [OD405] | EC50 [4] [nM] | Kd [5] [nM] | koff [5] [s⁻¹] | kon [5] [M⁻¹ s⁻¹] | EC50 [6] [µg/mL] | OD405 [7] [OD405] | OD405 [8] [OD405] | OD405 [9] [OD405] | OD405 [10] [OD405] |
| --- | --- | --- | --- | --- | --- | --- | --- | --- | --- | --- | --- | --- |
| B1 | 1.41 | 0.5 | 0.25 | 7.7 | 0.084 | 0.000255 | 3.04e+06 | 0.0427 | 0.11 | 2.34 | 0.31 | 2.26 |
| B2 | 1.09 | 0.46 | 0.11 | 12.5 | 2.47 | 0.000397 | 161000 | 0.189 | 0.1 | 2.32 | 0.18 | 2.14 |
| B3 | 0.43 | 0.33 | 0.15 | 127 | 13.1 | 0.000306 | 23400 | 0.171 | 0.1 | 0.76 | 0.35 | 0.46 |
